Reference: publication PMC11176775, “Impact of DNA ligase 1 and IIIα interactions with APE1 and polβ on the efficiency of base excision repair pathway at the downstream steps”

T1: DNA ligase IIIα (LIGIIIα) (UniProt P49916-3 1-922)
T1 sequence: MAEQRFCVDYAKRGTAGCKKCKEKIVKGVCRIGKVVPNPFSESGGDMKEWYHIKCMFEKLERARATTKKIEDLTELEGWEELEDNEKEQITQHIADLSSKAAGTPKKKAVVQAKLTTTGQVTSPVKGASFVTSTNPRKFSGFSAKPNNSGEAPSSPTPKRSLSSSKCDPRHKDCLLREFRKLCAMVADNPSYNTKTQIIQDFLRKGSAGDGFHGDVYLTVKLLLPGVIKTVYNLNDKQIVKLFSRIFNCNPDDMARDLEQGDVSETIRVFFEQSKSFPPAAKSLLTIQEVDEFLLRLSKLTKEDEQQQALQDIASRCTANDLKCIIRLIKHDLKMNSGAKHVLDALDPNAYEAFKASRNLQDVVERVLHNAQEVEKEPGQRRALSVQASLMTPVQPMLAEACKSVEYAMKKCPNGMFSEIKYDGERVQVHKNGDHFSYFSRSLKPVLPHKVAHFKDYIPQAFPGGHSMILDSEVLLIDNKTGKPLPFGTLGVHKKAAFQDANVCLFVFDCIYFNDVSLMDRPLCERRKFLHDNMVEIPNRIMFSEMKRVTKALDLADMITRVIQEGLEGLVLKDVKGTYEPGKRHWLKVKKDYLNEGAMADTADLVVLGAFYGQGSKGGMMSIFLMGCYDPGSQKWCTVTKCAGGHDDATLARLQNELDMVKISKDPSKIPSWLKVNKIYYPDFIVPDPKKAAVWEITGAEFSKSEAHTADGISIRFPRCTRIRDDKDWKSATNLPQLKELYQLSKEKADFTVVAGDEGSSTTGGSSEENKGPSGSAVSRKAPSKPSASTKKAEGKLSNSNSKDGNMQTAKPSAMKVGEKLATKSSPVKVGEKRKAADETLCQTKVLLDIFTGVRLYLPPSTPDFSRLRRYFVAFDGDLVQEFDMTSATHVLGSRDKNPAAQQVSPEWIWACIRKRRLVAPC

B1: one-nucleotide gap DNA (template C) (dsDNA)
DNA 1: CATGGGCGGCATGAACC
DNA 2: GAGGCCCATCCTCACC
DNA 3: GGTGAGGATGGGCCTCCGGTTCATGCCGCCCATG
modifications: 5'-phosphate on S2 at the gap; 3'-OH on S1
B2: nick DNA (3'-dG:C) (dsDNA)
DNA 1: CATGGGCGGCATGAACCG
DNA 2: GAGGCCCATCCTCACC
DNA 3: B1 DNA 3
modifications: 5'-phosphate on strand 2 at the nick; 3'-OH on strand 1

Tests used:
[1] = molecular target: apurinic/apyrimidinic endonuclease 1 (APE1) (UniProt P27695 1-318); assay: BLI; BLI (Octet QKe), 20 °C: polβ, APE1, LIGIIIα in 20 mM Hepes pH 7.4, 200 mM NaCl, 0.5% BSA, 0.05% Tween 20; LIG1 in 50 mM Tris-HCl pH 7.5, 100 mM KCl, 1 mM DTT; no Mg2+ listed; details: protein: recombinant, tags: His, strands 1 and 2 pair with strand 3, blunt outer ends
[2] = molecular target: T1, DNA ligase IIIα (LIGIIIα); assay: BLI; range given jointly for polβ, LIG1 and LIGIIIα; individual value only in figure; BLI (Octet QKe), 20 °C: polβ, APE1, LIGIIIα in 20 mM Hepes pH 7.4, 200 mM NaCl, 0.5% BSA, 0.05% Tween 20; LIG1 in 50 mM Tris-HCl pH 7.5, 100 mM KCl, 1 mM DTT; no Mg2+ listed; details: protein: recombinant; tags: His; label: 3'-biotin on S2; 1-nt gap opposite template C; strands 1 and 2 pair with strand 3; blunt outer ends
[3] = molecular target: T2, DNA ligase 1 (LIG1) (UniProt P18858 1-919); assay: BLI; range given jointly for polβ, LIG1 and LIGIIIα; LIG1 buffer; BLI (Octet QKe), 20 °C: polβ, APE1, LIGIIIα in 20 mM Hepes pH 7.4, 200 mM NaCl, 0.5% BSA, 0.05% Tween 20; LIG1 in 50 mM Tris-HCl pH 7.5, 100 mM KCl, 1 mM DTT; no Mg2+ listed; details: protein: recombinant; tags: His; label: 3'-biotin on S2; 1-nt gap opposite template C; strands 1 and 2 pair with strand 3; blunt outer ends
[4] = molecular target: T3, DNA polymerase beta (polβ) (UniProt P06746 1-335); assay: BLI; range given jointly for polβ, LIG1 and LIGIIIα; individual value only in figure; BLI (Octet QKe), 20 °C: polβ, APE1, LIGIIIα in 20 mM Hepes pH 7.4, 200 mM NaCl, 0.5% BSA, 0.05% Tween 20; LIG1 in 50 mM Tris-HCl pH 7.5, 100 mM KCl, 1 mM DTT; n
[5] = molecular target: T1, DNA ligase IIIα (LIGIIIα); assay: BLI; BLI (Octet QKe), 20 °C: polβ, APE1, LIGIIIα in 20 mM Hepes pH 7.4, 200 mM NaCl, 0.5% BSA, 0.05% Tween 20; LIG1 in 50 mM Tris-HCl pH 7.5, 100 mM KCl, 1 mM DTT; no Mg2+ listed; details: protein: recombinant; tags: His; label: 3'-biotin on strand 2; nicked duplex; strands 1 and 2 pair with strand 3; blunt outer ends
[6] = molecular target: T3, DNA polymerase beta (polβ); assay: BLI; BLI (Octet QKe), 20 °C: polβ, APE1, LIGIIIα in 20 mM Hepes pH 7.4, 200 mM NaCl, 0.5% BSA, 0.05% Tween 20; LIG1 in 50 mM Tris-HCl pH 7.5, 100 mM KCl, 1 mM DTT; n
[7] = molecular target: T2, DNA ligase 1 (LIG1); assay: BLI; LIG1 buffer; BLI (Octet QKe), 20 °C: polβ, APE1, LIGIIIα in 20 mM Hepes pH 7.4, 200 mM NaCl, 0.5% BSA, 0.05% Tween 20; LIG1 in 50 mM Tris-HCl pH 7.5, 100 mM KCl, 1 mM DTT; no Mg2+ listed; details: protein: recombinant; tags: His; label: 3'-biotin on strand 2; nicked duplex; strands 1 and 2 pair with strand 3; blunt outer ends

Binder | Kd ([1]; label: 3'-biotin on S2, 1-nt gap opposite template C) | Kd [2] | Kd [3] | Kd [4] | Kd ([1]; label: 3'-biotin on strand 2, nicked duplex) | Kd [5] | Kd [6] | Kd [7]
B1 | 70 nM | ~4.9 nM | ~4.9 nM | ~4.9 nM |  |  |  | 
B2 |  |  |  |  | 200 nM | ~7 nM | ~20 nM | 3 nM
